Experimental data: PMC10180154, “Screening and Identification of ssDNA Aptamers for Low-Density Lipoprotein (LDL) Receptor-Related Protein 6”

Molecular target: LRP6 (recombinant human LRP-6, Fc chimera) (Homo sapiens, UniProt O75581 20-1370)
Assay: SPR; CE-LIF: incubation pH 8.0, 0.155% glutathione, 0.395% Tris-HCl; running buffer 50 mM borate pH 7.6, 20 kV, 25 C (CE-SELEX conditions). SPR: PBST pH 7.4, 0.05% Tween-20, 25 C, protein amine-coupled on CM5. AuNP: room temperature, then 0.9 M NaCl.
Settings: protein: commercial; tags: Fc chimera; chain copies: 2

Chain of LRP6 (recombinant human LRP-6, Fc chimera) (O75581 20-1370, change not shown): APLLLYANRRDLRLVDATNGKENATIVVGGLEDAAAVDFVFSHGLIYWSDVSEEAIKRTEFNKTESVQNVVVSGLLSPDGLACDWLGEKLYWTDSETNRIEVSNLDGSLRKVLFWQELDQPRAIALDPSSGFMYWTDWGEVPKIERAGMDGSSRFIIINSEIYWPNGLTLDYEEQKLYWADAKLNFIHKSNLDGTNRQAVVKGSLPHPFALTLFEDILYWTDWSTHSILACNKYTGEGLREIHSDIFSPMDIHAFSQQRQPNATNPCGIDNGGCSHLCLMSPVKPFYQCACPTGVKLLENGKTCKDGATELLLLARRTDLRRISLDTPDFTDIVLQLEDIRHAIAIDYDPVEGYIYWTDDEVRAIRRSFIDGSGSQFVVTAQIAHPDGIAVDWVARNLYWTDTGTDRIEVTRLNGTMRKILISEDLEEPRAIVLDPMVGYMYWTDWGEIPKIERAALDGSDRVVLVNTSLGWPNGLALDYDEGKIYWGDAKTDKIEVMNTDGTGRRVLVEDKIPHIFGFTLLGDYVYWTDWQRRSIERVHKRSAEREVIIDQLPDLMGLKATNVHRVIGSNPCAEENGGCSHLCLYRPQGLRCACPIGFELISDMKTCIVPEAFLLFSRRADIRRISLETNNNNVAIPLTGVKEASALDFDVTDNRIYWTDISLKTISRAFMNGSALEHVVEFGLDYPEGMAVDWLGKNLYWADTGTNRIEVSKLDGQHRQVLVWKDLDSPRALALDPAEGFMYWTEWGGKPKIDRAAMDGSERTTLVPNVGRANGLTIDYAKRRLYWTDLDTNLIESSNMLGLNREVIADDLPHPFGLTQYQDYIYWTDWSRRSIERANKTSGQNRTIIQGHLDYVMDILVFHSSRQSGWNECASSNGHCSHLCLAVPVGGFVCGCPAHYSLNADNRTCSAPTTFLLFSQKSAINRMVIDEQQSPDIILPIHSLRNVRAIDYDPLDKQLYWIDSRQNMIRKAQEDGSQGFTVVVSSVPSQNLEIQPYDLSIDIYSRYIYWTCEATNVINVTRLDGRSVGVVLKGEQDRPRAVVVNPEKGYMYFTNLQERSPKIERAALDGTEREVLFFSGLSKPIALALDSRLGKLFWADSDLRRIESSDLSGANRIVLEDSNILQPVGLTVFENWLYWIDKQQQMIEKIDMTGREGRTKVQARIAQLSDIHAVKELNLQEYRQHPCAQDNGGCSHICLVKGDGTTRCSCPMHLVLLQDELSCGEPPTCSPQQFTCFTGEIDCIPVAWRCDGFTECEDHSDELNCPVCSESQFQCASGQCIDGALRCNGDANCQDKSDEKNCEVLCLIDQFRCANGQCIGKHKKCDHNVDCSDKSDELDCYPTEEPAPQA

B1: MutLRP6-A2 (ssDNA)
DNA: AGCAGCACTTAGGTCAGATGGCCACATTAGTCTCACCACTACCTTTTTTCCTACCGCCGCCCTATGCGTGCTACCGTGAA
B1: no binding.

B2: MutLRP6-A3 (ssDNA)
DNA: AGCAGCACAGAGGTTATTTGGCAGCTAAGCAGGCGGCTCACAAAACCATTCGCATGCGGCCCTATGCGTGCTTTTGTGAA
In the case of B2, the Kd is reported as 2680 nM.
